The values below come from US20250075002A1 (BEIGENE SWITZERLAND, published 2025).

Broadly, the EC50 is the midpoint of the concentration-response curve. A low value points to greater potency. Broadly, the Kd is the equilibrium constant for the complex coming apart. Low readings indicate higher affinity, high ones lower affinity. As usually defined, the koff is the first-order rate constant of dissociation. The low end stands for a long-lived complex, the high end for a short-lived complex. The term kon denotes the second-order rate constant of association.

Experiment [1] deals with T1, human CD16A (F158) on NK92mi cells (human, UniProt P08637 17-254).
T1 construct: NK92mi cells co-transduced with CD16A (F158) and FcRgamma cDNAs; also called NK92mi/CD16A F158
The experiment is described as follows: flow cytometry, biotinylated VHH-Fc on NK92mi/CD16A 158F cells, with 10 mg/ml human IgG1 CB6 as competitor.

The target of experiment [2] is T2, human CD16B-His6 (NA1) (human, UniProt O75015 17-200).
T2 construct: Bought ECD fragment; also called CD16B NA1; human CD16B (NA1); not shown: six-histidine tag (His6)
T2 chain: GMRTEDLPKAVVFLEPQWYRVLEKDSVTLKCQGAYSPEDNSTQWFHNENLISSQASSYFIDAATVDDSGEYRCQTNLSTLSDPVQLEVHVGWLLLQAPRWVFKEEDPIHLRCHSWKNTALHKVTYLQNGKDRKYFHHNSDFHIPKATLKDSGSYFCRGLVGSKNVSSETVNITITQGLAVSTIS
The experiment is described as follows: SPR; VHH-Fc captured on anti-human Fc surface; row head prints 'KD (nM)', taken as M like the rest of the table. (In general: Surface plasmon resonance follows binding to a sensor surface in real time, without labels.)

Experiment [3] addresses T3, human CD16B-His6 (NA2) (human, UniProt O75015 17-200).
T3 construct: Bought ECD fragment; also called CD16B NA2; human CD16B (NA2); not shown: six-histidine tag (His6)
T3 chain: T2 chain with R20S, N49S, D66N, V90I
Described as above.

The target of experiment [4] is T4, human CD16B (NA2) on NK92mi cells (human, UniProt O75015 17-200).
T4 construct: also called NK92mi/CD16B (NA2); NK92mi/CD16B NA2
T4 chain: T2 chain with R20S, N49S, D66N, V90I
Nature of the experiment: flow cytometry on live NK92mi/CD16B NA2 cells, 300 nM VHH-Fc. On the technique in general: A flow cytometer gives signals particle by particle.

Experiment [5] concerns the target T5, cyno CD16-His6 (cyno, UniProt Q8SPW2 17-208).
T5 construct: Bought ECD fragment; not shown: six-histidine tag (His6)
The experiment is described as follows: SPR; VHH-Fc captured on anti-human Fc surface.

For experiment [6], the target named is T1, human CD16A (F158) on NK92mi cells. Nature of the experiment: flow cytometry on NK92mi/CD16A 158F cells.
Experiment [7] deals with T6, human CD16A-His6 (F158) (human, UniProt P08637 17-208).
T6 construct: Bought ECD fragment; also called human CD16A (F158); not shown: six-histidine tag (His6)
The experiment is described as follows: SPR; VHH-Fc captured on anti-human Fc surface.

For experiment [8], the target named is T7, human CD16A-His6 (V158) (human, UniProt P08637 17-208).
T7 construct: Bought (Sino Biologics) ECD fragment; also called CD16A 158V; human CD16A (V158); not shown: six-histidine tag (His6)
The experiment is described as follows: SPR; VHH-Fc captured on anti-human Fc surface.

In experiment [9] the target is T5, cyno CD16-His6. The experiment is described as follows: SPR; VHH-Fc captured on anti-human Fc surface; column head prints 'KD (nM)', koff/kon shows M.
Experiment [10] addresses T1, human CD16A (F158) on NK92mi cells. Nature of the experiment: flow cytometry, biotinylated VHH-Fc on NK92mi/CD16A 158F cells, without human IgG1 (CB6).
Experiment [11] has as its target T6, human CD16A-His6 (F158). The experiment is described as follows: SPR; VHH-Fc captured on anti-human Fc surface; row head prints 'KD (nM)', koff/kon shows M.
Experiment [12] concerns the target T7, human CD16A-His6 (V158). Described as above.
Experiment [13] addresses T8, human CD16B (NA1) on NK92mi cells (human, UniProt O75015 17-200).
T8 construct: also called NK92mi/CD16B (NA1); NK92mi/CD16B NA1
T8 chain: T2 chain
Nature of the experiment: flow cytometry on live NK92mi/CD16B NA1 cells, 300 nM VHH-Fc.

The target of experiment [14] is T1, human CD16A (F158) on NK92mi cells. The experiment is described as follows: flow cytometry on live NK92mi/CD16A 158F cells.
The target of experiment [15] is T2, human CD16B-His6 (NA1). Nature of the experiment: SPR; VHH-Fc captured on anti-human Fc surface; row head prints 'KD (nM)', taken as M like the rest of the table.
Experiment [16] addresses T3, human CD16B-His6 (NA2). Described as above.
Experiment [17] has as its target T6, human CD16A-His6 (F158). The experiment is described as follows: SPR; VHH-Fc captured on anti-human Fc surface. This is another data set of the same source.
Experiment [18] concerns the target T7, human CD16A-His6 (V158). The experiment is described as follows: SPR; VHH-Fc captured on anti-human Fc surface. The source holds these as a separate data set.
Experiment [19] deals with T6, human CD16A-His6 (F158). Nature of the experiment: SPR; VHH-Fc captured on anti-human Fc surface; row head prints 'KD (nM)', text gives 0.08 nM, so M.
The target of experiment [20] is T7, human CD16A-His6 (V158). Described as above.

Residue numbers refer to the chain shown, from its start. Like-named read-outs stand apart in the source and are kept apart here.

T5 sequence (Q8SPW2 17-208): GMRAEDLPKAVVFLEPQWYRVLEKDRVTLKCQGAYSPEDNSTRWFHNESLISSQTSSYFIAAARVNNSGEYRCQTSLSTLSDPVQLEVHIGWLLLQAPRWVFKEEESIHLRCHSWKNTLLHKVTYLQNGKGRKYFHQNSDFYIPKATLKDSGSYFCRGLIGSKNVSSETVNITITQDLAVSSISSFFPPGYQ

B1: BG525P (VHH-Fc) (VHH)
chain: EVQLVESGGGLVQPGGSLRLSCAASGRTFGSYAVGWFRQAPGRGREFVAAIRRSDGTTDYVDSVKGRFTISRDNAKNTVYLQMNSLKPEDTAVYYCAASDSDYEPLGDYWGQGTLVTVSSEPKSSDKTHTCPPCPAPPAAGPSVFLFPPKPKDTLMISRTPEVTCVVVDVSHEDPEVKFNWYVDGVEVHNAKTKPREEQYNSTYRVVSVLTVLHQDWLNGKEYKCKVSNKALAAPIEKTISKAKGQPREPQVYTLPPSREEMTKNQVSLTCLVKGFYPSDIAVEWESNGQPENNYKTTPPVLDSDGSFFLYSKLTVDKSRWQQGNVFSCSVMHEALHNHYTQKSLSLSPGK
notes: Humanized BG523P variant, VHH-Fc
With B1, the values for the 50% effective concentration (EC50) in experiment [1], in [6] and in experiment [10] were 6.83 nM, 10.3 nM and 1.65 nM, respectively. Moreover, the “EMAX (MFI)” value in experiment [1] is 21900 MFI; in experiment [6], 9710 MFI; in [10], 23300 MFI. The Kd turned out to be 2310 nM with human CD16B-His6 (NA1) [2]; 5.78 µM with human CD16B-His6 (NA2) [3]; 0.418 nM with cyno CD16-His6 [9]; 0.575 nM with human CD16A-His6 (F158) [11]; 0.404 nM with human CD16A-His6 (V158) [12]. Also, the “Binding signal at 300 nM (MFI)” value amounted to 75 MFI in experiment [4] and 733 MFI in experiment [13]. The off-rate (koff) stood at 0.000112 s⁻¹ with cyno CD16-His6 [5], 0.00012 s⁻¹ with human CD16A-His6 (F158) [7] and 0.000103 s⁻¹ in the experiment with human CD16A-His6 (V158) [8]. The results for the kon with cyno CD16-His6 [5], in the experiment with human CD16A-His6 (F158) [7] and in the experiment with human CD16A-His6 (V158) [8] were 267000 M⁻¹ s⁻¹, 210000 M⁻¹ s⁻¹ and 255000 M⁻¹ s⁻¹, respectively.

B2: BG526P (VHH-Fc) (VHH)
chain: B1 chain with R43K, G56A
notes: as for B1
As to B2, the EC50 in experiment [1] was determined as 4.95 nM; in experiment [6] it was 9.1 nM; in experiment [10], 1.52 nM. Also, the “EMAX (MFI)” value in experiment [1] was 19600 MFI; in experiment [6], 9200 MFI; in experiment [10] it was 21600 MFI. For the same molecule, the Kd in the experiment with human CD16B-His6 (NA1) [2] was 2740 nM; with human CD16B-His6 (NA2) [3] it was 7.64 µM; with cyno CD16-His6 [9] it was 0.49 nM; with human CD16A-His6 (F158) [11] it was 0.64 nM; with human CD16A-His6 (V158) [12], 0.425 nM. In addition, the entries for the “Binding signal at 300 nM (MFI)” value in [4] and in experiment [13] were 52 MFI and 473 MFI, respectively. Further, the koff came out at 0.000147 s⁻¹ with cyno CD16-His6 [5], 0.000148 s⁻¹ with human CD16A-His6 (F158) [7] and 0.000133 s⁻¹ with human CD16A-His6 (V158) [8]. The kon with cyno CD16-His6 [5] was found to be 301000 M⁻¹ s⁻¹; with human CD16A-His6 (F158) [7] it was 230000 M⁻¹ s⁻¹; with human CD16A-His6 (V158) [8], 289000 M⁻¹ s⁻¹.

B3: BG524P (VHH-Fc) (VHH)
chain: B1 chain with R43K, F47W, G56A, T78S, K87R
notes: Humanized BG523P variant, VHH fused to the N-terminus of the human IgG1 variant Fc
As for B3, in [14], the response was half-maximal at 4.42 nM (EC50). The Kd in the experiment with human CD16B-His6 (NA1) [15] was found to be 942 nM; with human CD16B-His6 (NA2) [16], 1050 nM; with human CD16A-His6 (F158) [19], 0.0825 nM; with human CD16A-His6 (V158) [20], 0.0816 nM. In addition, the values for the off-rate (koff) with human CD16A-His6 (F158) [17] and with human CD16A-His6 (V158) [18] were 0.000119 s⁻¹ and 0.00011 s⁻¹, respectively. In addition, the on-rate (kon) was 1.44e+06 M⁻¹ s⁻¹ with human CD16A-His6 (F158) [17] and 1.35e+06 M⁻¹ s⁻¹ in the experiment with human CD16A-His6 (V158) [18].
